Measurements: patent publication US20220356245A1 (FORTY SEVEN, published 2022)
Positions count from the first letter of the chain named. Names may count otherwise. Read-outs that look alike come from different tables or passages of the source. Blank lines part the entries; values can stand above or below the binder they belong to.

Assays:
[1] = molecular target: T1, human CD47 (hCD47) expressed on cells (human, UniProt Q08722 19-323); test: flow cytometry, Raji cells
T1 construct: Transfected CHO cells or endogenous CD47 of human cells; also called CHO-hCD47; CD47 on Raji cells

[2] = molecular target: T2, hu-sCD47-6His; extracellular domain of human CD47 antigen with 6His-tag (human); test: SPR Biacore
T2 construct: also called hCD47-his; soluble hCD47
From the text: (§1) An anti-human or anti-mouse IgG (Fc) was first immobilized on the surface of Serie S Sensor Chips CM5 using the human or mouse antibody capture and amine coupling kits, following the manufacturer's instructions (GE Healthcare). […] The mouse, chimerized or humanized antibodies to be tested were then captured onto the appropriate anti-mouse or anti-human IgG surface in all flow cells except flow cell 1 used as control, at concentration and contact time adjusted so that ˜300 RU were captured on the surface. Binding kinetics were studied by passing increasing concentrations of hCD47-his in a series of five 10 minute injections through all flow cells at a rate of 30 μL/min. […] Following the final injection, buffer was passed across each flow cell for 60 minutes (mouse) or 30 minutes (human) to monitor the dissociation of bound antigen. Regeneration of the binding surface was carried out at the end of the cycle by flowing 3 M MgCl₂ for 60 s at 20 μL/min followed by 10 mM glycine-HCl, pH 1.7 for 180 s at 10 μl/min (for human) or by flowing 10 mM glycine-HCl, ph 1.7 for 360 s at 10 μl/min (for mouse). A second cycle with the same antibodies but no antigen was run as a control. Kinetics binding constants were estimated by non-linear fitting of the sensogram data to the 1:1 binding model provided by the Biacore T200 evaluation software.

[3] = molecular target: T1, human CD47 (hCD47) expressed on cells; test: flow cytometry, Raji cells, competition with hSIRPα
[4] = molecular target: T1, human CD47 (hCD47) expressed on cells; test: flow cytometry on Raji cells, hIgG4 format: inhibition of hSIRPα binding to hCD47
[5] = molecular target: T1, human CD47 (hCD47) expressed on cells; test: flow cytometry on Raji cells, hIgG4 format, delta MFI
[6] = molecular target: T3, N-deglycosylated soluble hCD47-His (PNGase treated) (human, N-glycans removed with PNGase); test: ELISA, one-site binding saturation fit, deglycosylated hCD47
T3 construct: also called deglycosylated-hCD47; N-Deglycosylated hCD47-His
Method: (§2) The equilibrium binding constant values were calculated by using the binding saturation/one-site binding model of the GraphPad Prism software (mean +/− SD of triplicates).

[7] = molecular target: T2, hu-sCD47-6His; extracellular domain of …; test: ELISA, one-site binding saturation fit, glycosylated hCD47
Method: (§3) The Bmax values were calculated by using the binding saturation/one-site binding model of the GraphPad Prism software (mean +/− SD of triplicates).

[8] = molecular target: T3, N-deglycosylated soluble hCD47-His …; test: ELISA, one-site binding saturation fit, deglycosylated hCD47; remark: listed apart in the source
Method: as §3

[9] = molecular target: T1, human CD47 (hCD47) expressed on cells; test: flow cytometry on Raji cells, hIgG4 format, delta MFI; remark: listed apart in the source
[10] = molecular target: T2, hu-sCD47-6His; extracellular domain of …; test: ELISA, coated glycosylated hCD47-His
Method: (§4) The EC50 and EC95 values were calculated by using the non-linear regression/log (antibody) versus response (four parameters) model of the GraphPad Prism software.

[11] = molecular target: T3, N-deglycosylated soluble hCD47-His …; test: ELISA; against glycosylated hCD47-His
Method: as §4

[12] = molecular target: T2, hu-sCD47-6His; extracellular domain of …; test: ELISA, one-site binding saturation fit, glycosylated hCD47; remark: listed apart in the source
Method: as §2

[13] = molecular target: T3, N-deglycosylated soluble hCD47-His …; test: ELISA, coated N-deglycosylated hCD47-His
[14] = molecular target: T1, human CD47 (hCD47) expressed on cells; test: flow cytometry on Raji cells, hIgG4 format: inhibition of hSIRPα binding to hCD47; remark: listed apart in the source
[15] = molecular target: T1, human CD47 (hCD47) expressed on cells; test: as above; remark: listed apart in the source
[16] = molecular target: T1, human CD47 (hCD47) expressed on cells; test: flow cytometry, Raji cells, competition with hSIRPα; remark: listed apart in the source
[17] = molecular target: T2, hu-sCD47-6His; extracellular domain of …; test: SPR Biacore; remark: listed apart in the source
From the text: as §1

[18] = molecular target: T2, hu-sCD47-6His; extracellular domain of …; test: SPR Biacore; head read as x 10^-4
From the text: as §1

[19] = molecular target: T1, human CD47 (hCD47) expressed on cells; test: flow cytometry on Raji cells, hIgG4 format, delta MFI; remark: listed apart in the source
[20] = molecular target: T4, mouse CD47 (mCD47) expressed on CHO cells (mouse, UniProt Q61735 19-303); test: flow cytometry, CHO-mCD47 cells (not shown)
T4 construct: whole, on cells; also called CHO-mCD47
T4 sequence (looked up): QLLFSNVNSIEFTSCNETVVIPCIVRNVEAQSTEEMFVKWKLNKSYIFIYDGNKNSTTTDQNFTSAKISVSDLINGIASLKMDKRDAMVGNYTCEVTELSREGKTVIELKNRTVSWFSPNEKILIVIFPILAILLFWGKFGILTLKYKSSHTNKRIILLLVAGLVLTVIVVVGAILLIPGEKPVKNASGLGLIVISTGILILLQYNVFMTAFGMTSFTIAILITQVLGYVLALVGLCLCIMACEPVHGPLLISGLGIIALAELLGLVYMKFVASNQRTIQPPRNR

[21] = molecular target: T1, human CD47 (hCD47) expressed on cells; test: flow cytometry, Raji cells; remark: listed apart in the source
[22] = molecular target: T1, human CD47 (hCD47) expressed on cells; test: flow cytometry on Raji cells, hIgG4 format: inhibition of hSIRPα binding to hCD47; remark: listed apart in the source
[23] = molecular target: T1, human CD47 (hCD47) expressed on cells; test: flow cytometry on Raji cells, hIgG4 format, delta MFI; remark: listed apart in the source
[24] = molecular target: T1, human CD47 (hCD47) expressed on cells; test: flow cytometry, Raji cells; remark: listed apart in the source
Method: Raji cells (ATCC-CLL-86; 2×10⁵ cells/well of 96-well plate) were first incubated at +4° C. for 30 minutes with serial dilutions of anti-CD47 antibodies or control isotype antibody (in mIgG2a or mIgG1 format). The cells were then washed and incubated for 30 minutes at +4° C. with a PE-conjugated F(ab)′2 goat anti-mouse IgG antibody ( 1/100 dilution, Beckman Coulter). After washings, the fluorescence of the cells was analyzed by flow cytometry on an Accuri-C6 flow cytometer (BD Biosciences).
The delta of MFI, representing the difference between the intensity measured with the tested antibody and the intensity in the absence of antibody, was calculated for each antibody concentration and the values were plotted against the antibody concentrations. The EC50 values were then calculated by using a nonlinear regression analysis model of the GraphPad Prism software.

[25] = molecular target: T2, hu-sCD47-6His; extracellular domain of …; test: SPR Biacore T200, antibody captured, hCD47-his analyte;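 also: antibodies captured on anti-IgG (Fc) CM5 chip, five sequential 10 min antigen injections at rising concentrations, reference flow cell and antigen-free cycle as controls, 1:1 model fit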
From the text: as §1

[26] = molecular target: T1, human CD47 (hCD47) expressed on cells; test: flow cytometry, hCD47-CHO cells, competition with His-hSIRPα
Method: Human CD47-transfected cells (3×10⁵ cells/well of 96-well plate) were first incubated at +4° C. for 30 minutes with serial dilutions of anti-CD47 antibodies or isotype control antibody (in mIgG2a or mIgG1 format). […] The percentage inhibition was plotted against antibody concentration and the IC50 values were calculated using a nonlinear regression analysis model of the GraphPad Prism software.

[27] = molecular target: T4, mouse CD47 (mCD47) expressed on CHO …; test: flow cytometry, CHO-mCD47 cells
[28] = molecular target: T1, human CD47 (hCD47) expressed on cells; test: cell-based or functional assay
[29] = molecular target: T1, human CD47 (hCD47) expressed on cells; test: flow cytometry, Raji cells, competition with His-hSIRPα
Method: (§5) The percent inhibition was plotted against antibody concentration and the IC50 values were calculated by using a nonlinear regression analysis model of the GraphPad Prism software.

[30] = molecular target: T1, human CD47 (hCD47) expressed on cells; test: flow cytometry, Raji cells, competition with His-hSIRPα; lower end tied to candidates 14 and 15 by Table 7
Method: as §5

[31] = molecular target: T2, hu-sCD47-6His; extracellular domain of …; test: SPR Biacore; remark: listed apart in the source
From the text: as §1

[32] = molecular target: T1, human CD47 (hCD47) expressed on cells; test: flow cytometry, Raji cells, competition with hSIRPα; remark: listed apart in the source
[33] = molecular target: T1, human CD47 (hCD47) expressed on cells; test: flow cytometry, Raji cells; remark: listed apart in the source

B1: h20-H3-L2Y (candidate 20.27), hIgG4-S228P (antibody, V domains shown)
VH: QVQLVQSGAEVKKPGASVKVSCKASGYSFTDYYINWVRQAPGQGLEWMGRIYPGIGNTYYNKKFKGRVTVTRDTSISTAHMELSSLRSDDTAVYYCARGHYGRGMDYWGQGTAVTVSS
VL: DIVMTQSPDSLAVSLGERATINCKSSQSLLNSIDQKNYLAWYQQKPGQPPKLLIYYASTKESGVPDRFSGSGSGTDFTLTISSLQAEDVAVYYCQQHYSTPWTFGGGTKVEIKR
notes: also called H20-VH3-VL2,Y
EC50 [1]: 0.0854 µg/mL
Kd [2]: 2.06 nM
koff [2]: 0.000584 s⁻¹
kon [2]: 292000 M⁻¹ s⁻¹
IC50 [3]: 0.101 µg/mL
IC50 (read off the curve) [4]: ~0.2 µg/mL
EC50 (read off the curve) [5]: ~0.1 µg/mL

B2: h20-H2-L5Y (candidate 20.26), huIgG4_S228P format (antibody, V domains shown)
VH: B1 VH with V70I, I76A, H80Y, D89E, A113L
VL: B1 VL with S83G, Y93F, K113R
notes: also called H20-VH2-VL5,Y; h2O-H2L5Y
EC50 [1]: 0.0975 µg/mL
equilibrium binding constant [6]: 55.7 pM
Bmax [7]: 2.85 OD value
Kd [2]: 2.32 nM
koff [2]: 0.000699 s⁻¹
kon [2]: 306000 M⁻¹ s⁻¹
Bmax2 [8]: 1.97 OD value
EC50 (read off the curve) [9]: ~0.1 µg/mL
EC50 [10]: 0.044 nM
EC95 [10]: 1.33 nM
IC50 [3]: 0.113 µg/mL
EC50 ratio Deglycosylated/Glycosylated [11]: 2.2 ratio
EC95 ratio Deglycosylated/Glycosylated [11]: 8.5 ratio
equilibrium binding constant [12]: 43.6 pM
EC50 [13]: 0.096 nM
EC95 [13]: 11.3 nM
IC50 (read off the curve) [14]: ~0.2 µg/mL

B7: Candidate 20 (VL008-AL18-14G4-14K1), mouse IgG (antibody, V domains shown)
VH: QVQLKQSGAELVRPGASVKLSCKASGYSFTDYYINWVKQRPGQGLEWIARIYPGIGNTYYNKKFKGKATLTAEKSSSTAYMQLNSLTSEDSAVYFCARGHYGRGMDYWGQGTSVTVSS
VL: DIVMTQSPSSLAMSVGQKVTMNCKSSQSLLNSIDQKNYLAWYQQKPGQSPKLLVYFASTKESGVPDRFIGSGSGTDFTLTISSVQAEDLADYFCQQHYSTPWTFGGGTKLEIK
notes: Recombinant mouse IgG2a or mIgG1 format, by assay; also called antibody 20
EC50 [24]: 0.096 µg/mL
Kd [25]: 4.16 nM
koff [25]: 0.000418 s⁻¹
kon [25]: 101000 M⁻¹ s⁻¹
IC50 [26]: 0.44 µg/mL
binding result [27]: no binding (tested: 7.3 µg/mL highest concentration)
Phagocytic index, Raji cells and human macrophages, antibody at 0.125 µg/mL [28]: 119 Raji cells ingested per 100 macrophages

B8: Candidate 14, chimeric hIgG format (hIgG1 or hIgG4) (antibody, V domains shown)
VH: QVQLQQPGAELVKPGASLRVSCKASGYTFTNYWMYWVRQRPGRGLEWIGWIDPNSGGTKYNEKFKSKATLTVDKPSSTAYMQLSSLTSEDSAVYNCARGGYTMDYWGQGTSVTVSS
VL: DVVMTQTPLSLPVSLGDQASISCRASQSLVHSNGNTYLHWYLQKPGQSPKLLIYKVSNRFSGVPDRFSGSGSGTDFTLKISRVEAEDLGVYFCSQSTHVPLTFGAGTKLELK
notes: also called Candidate 14 (hIgG format)
IC50 [29]: 0.021 µg/mL
IC50 [30]: 0.14 nM

B9: Candidate 15, chimeric hIgG format (hIgG1 or hIgG4) (antibody, V domains shown)
VH: QVQLQQPGAELVKPGTSVKLSCKASGYTFINYWIHWVKQRPGRGLEWIGRIDPNTVDAKYNEKFKSKATLTVDKPSSIAYMQLSSLTSEDSAVYYCSRGGYTMDYWGQGTSVTVSS
VL: B8 VL with A25S, K50T, V90I, S94F, L101W, A105G, L111I
notes: also called Candidate 15 (hIgG format)
IC50 [29]: 0.021 µg/mL
IC50 [30]: 0.14 nM

The next lines start with the values.

IC50 (read off the curve) [15]: ~0.3 µg/mL
IC50 [16]: 0.095 µg/mL
Kd [17]: 3.5 nM
kon [17]: 192000 M⁻¹ s⁻¹
koff [18]: 0.000624 s⁻¹
EC50 (read off the curve) [19]: ~0.1 µg/mL
binding result [20]: no binding
EC50 [21]: 0.136 µg/mL
B3: h20-VH4-VL5 (candidate 20.20) (antibody, human IgG4 S228P, kappa, V domains shown)
VH: B1 VH with A16S, V70I, R72A, T74K, I76T, H80Y, D89E, A113T
VL: B1 VL with Y56F, S83G, Y93F, K113R
notes: hIgG4-S228P/kappa; also called h20-H4-L5

EC50 [1]: 0.147 µg/mL
Kd [2]: 2.61 nM
koff [2]: 0.000761 s⁻¹
kon [2]: 306000 M⁻¹ s⁻¹
IC50 [3]: 0.181 µg/mL
IC50 (read off the curve) [22]: ~0.4 µg/mL
EC50 (read off the curve) [23]: ~0.1 µg/mL
B4: h20-H4-L4Y (candidate 20.29), hIgG4-S228P (antibody, V domains shown)
VH: B1 VH with A16S, V70I, R72A, T74K, I76T, H80Y, D89E, A113T
VL: B1 VL with Y93F, T108A
notes: also called H20-VH4-VL4,Y

IC50 [16]: 0.192 µg/mL
Kd [17]: 4.15 nM
kon [17]: 179000 M⁻¹ s⁻¹
IC50 (read off the curve) [22]: ~0.3 µg/mL
koff [18]: 0.000685 s⁻¹
EC50 (read off the curve) [23]: ~0.1 µg/mL
binding result [20]: no binding
EC50 [21]: 0.139 µg/mL
B5: h20-VH4-VL4 (candidate 20.19) (antibody, human IgG4 S228P, kappa, V domains shown)
VH: B1 VH with A16S, V70I, R72A, T74K, I76T, H80Y, D89E, A113T
VL: B1 VL with Y56F, Y93F, T108A
notes: hIgG4-S228P/kappa; also called h20-H4-L4

EC50 [1]: 0.105 µg/mL
IC50 (read off the curve) [15]: ~0.3 µg/mL
Kd [2]: 2.82 nM
koff [2]: 0.000693 s⁻¹
kon [2]: 254000 M⁻¹ s⁻¹
IC50 [3]: 0.149 µg/mL
EC50 (read off the curve) [19]: ~0.1 µg/mL
B6: h20-H4-L5Y (candidate 20.30), hIgG4-S228P (antibody, V domains shown)
VH: B1 VH with A16S, V70I, R72A, T74K, I76T, H80Y, D89E, A113T
VL: B1 VL with S83G, Y93F, K113R
notes: also called H20-VH4-VL5,Y

equilibrium binding constant [6]: 31.8 pM
Kd [31]: 12.2 nM
koff [31]: 0.000381 s⁻¹
kon [31]: 31200 M⁻¹ s⁻¹
Bmax [7]: 2.85 OD value
IC50 [32]: 0.14 µg/mL
Bmax2 [8]: 2.57 OD value
EC50 [10]: 0.0387 nM
EC95 [10]: 4.67 nM
EC50 ratio Deglycosylated/Glycosylated [11]: 1.1 ratio
EC95 ratio Deglycosylated/Glycosylated [11]: 1.4 ratio
equilibrium binding constant [12]: 34.4 pM
EC50 [13]: 0.042 nM
EC95 [13]: 6.67 nM
EC50 [33]: 0.122 µg/mL
B10: hIgG4 chimeric candidate 22 (mouse VH/VL, human Fcγ4-S228P and human Kappa backbone) (antibody, V domains shown)
VH: QVQLQQPGAELVKPGASVKLSCKASGYTFTTYWMHWVKQRPGQGLEWIGMIHPNSGTTNYNEKFKSKATLTVDKSSSSTYMQLSSLTSEDSAVYYCTRSHYYDGHFSYWGQGTLVTVSA
VL: DIVMSQSPSSLAVSAGEKVTMSCKSSQSLLNSRTRKNYLAWYQQKPGQSPKLLIYWASTRESGVPDRFTGSGSGTDFTLTISSVQAEDLAVYYCKQSYNLWTFGGGTRLEIKR
notes: hIgG4-S228P/kappa; also called Chim; 22
